How the values were obtained:
[1] = system: C-mip protein (c-maf inducing protein), human, full-length
[2] = system: T1, nephrin (co-expressed in HEK cells)
T1 sequence: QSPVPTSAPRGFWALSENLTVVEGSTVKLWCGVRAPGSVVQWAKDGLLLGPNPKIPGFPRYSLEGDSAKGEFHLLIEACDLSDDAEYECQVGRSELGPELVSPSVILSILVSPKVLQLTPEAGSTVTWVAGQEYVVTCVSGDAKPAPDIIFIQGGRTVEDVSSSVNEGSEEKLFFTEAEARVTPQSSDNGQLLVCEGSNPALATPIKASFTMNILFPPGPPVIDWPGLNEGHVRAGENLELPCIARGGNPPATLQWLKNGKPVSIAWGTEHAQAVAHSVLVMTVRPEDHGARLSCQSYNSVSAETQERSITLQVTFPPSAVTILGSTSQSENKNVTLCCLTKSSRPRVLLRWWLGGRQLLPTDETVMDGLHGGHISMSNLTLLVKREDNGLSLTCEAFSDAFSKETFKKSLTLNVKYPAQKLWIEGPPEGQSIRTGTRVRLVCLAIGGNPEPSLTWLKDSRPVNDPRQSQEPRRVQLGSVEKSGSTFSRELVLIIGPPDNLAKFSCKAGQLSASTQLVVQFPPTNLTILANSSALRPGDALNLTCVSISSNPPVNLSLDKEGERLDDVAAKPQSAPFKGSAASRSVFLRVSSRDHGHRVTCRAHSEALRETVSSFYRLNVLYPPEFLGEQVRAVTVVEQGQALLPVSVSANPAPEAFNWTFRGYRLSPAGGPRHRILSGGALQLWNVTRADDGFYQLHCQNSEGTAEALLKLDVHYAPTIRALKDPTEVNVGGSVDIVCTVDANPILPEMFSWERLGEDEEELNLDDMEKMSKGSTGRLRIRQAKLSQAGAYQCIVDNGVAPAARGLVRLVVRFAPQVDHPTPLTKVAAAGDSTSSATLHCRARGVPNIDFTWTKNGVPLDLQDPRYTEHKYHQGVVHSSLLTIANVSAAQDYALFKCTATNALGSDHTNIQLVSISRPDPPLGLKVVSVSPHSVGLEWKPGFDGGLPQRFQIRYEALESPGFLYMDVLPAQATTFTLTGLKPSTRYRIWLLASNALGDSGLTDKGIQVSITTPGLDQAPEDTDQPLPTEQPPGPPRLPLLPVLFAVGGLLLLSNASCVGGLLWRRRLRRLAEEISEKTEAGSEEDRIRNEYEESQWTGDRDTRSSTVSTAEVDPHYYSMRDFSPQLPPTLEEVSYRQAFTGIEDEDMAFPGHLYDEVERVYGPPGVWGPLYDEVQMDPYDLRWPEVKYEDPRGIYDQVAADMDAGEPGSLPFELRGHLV

C-mip protein (c-maf inducing protein), human, full-length, sequence (chain, as listed by the source): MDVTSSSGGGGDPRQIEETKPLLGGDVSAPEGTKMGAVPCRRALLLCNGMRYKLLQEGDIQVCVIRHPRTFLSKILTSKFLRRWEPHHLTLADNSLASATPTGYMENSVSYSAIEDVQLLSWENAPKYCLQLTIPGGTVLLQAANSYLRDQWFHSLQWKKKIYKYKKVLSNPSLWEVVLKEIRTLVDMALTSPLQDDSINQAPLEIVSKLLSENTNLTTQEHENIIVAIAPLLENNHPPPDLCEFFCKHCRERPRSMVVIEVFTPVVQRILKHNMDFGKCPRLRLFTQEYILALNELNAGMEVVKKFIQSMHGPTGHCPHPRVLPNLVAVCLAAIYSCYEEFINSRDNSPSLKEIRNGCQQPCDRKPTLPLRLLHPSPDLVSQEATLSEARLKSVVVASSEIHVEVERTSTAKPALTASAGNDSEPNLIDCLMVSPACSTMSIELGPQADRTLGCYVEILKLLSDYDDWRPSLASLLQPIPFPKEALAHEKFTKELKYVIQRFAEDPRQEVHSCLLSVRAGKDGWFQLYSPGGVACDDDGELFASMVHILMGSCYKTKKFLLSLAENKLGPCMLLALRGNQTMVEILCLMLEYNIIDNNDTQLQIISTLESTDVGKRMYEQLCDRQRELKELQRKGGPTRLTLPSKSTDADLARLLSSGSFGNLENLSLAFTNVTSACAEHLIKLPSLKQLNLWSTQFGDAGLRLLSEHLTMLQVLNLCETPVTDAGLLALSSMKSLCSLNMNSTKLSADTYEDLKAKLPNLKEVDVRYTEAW

Q: What does the source list for “Fyn (expressed from Fyn plasmid in HEK 293 cells)”?
A: phosphorylation of nephrin by Fyn at Y1208 [1]: co-expression of c-mip reduced the phosphorylation of nephrin by Fyn at this tyrosine residue; phosphorylation of nephrin at tyrosine residue Y1208 [2]: Co-expression of nephrin and Fyn induced phosphorylation of nephrin at tyrosine residue Y1208
